Source: US20220119490A1 (Genentech, published 2022)
Residue numbers refer to the chain shown, from its start.

Legend:
[1] = biological target: T1, PTPRD G285E variant extracellular domain (human, UniProt P23468 21-1265); assay: extracellular interaction screen: pentameric PTPRD variant ECD on ECD-Fc prey (FIG. 5L)
T1 construct: extracellular domain; also called IG3 mutant
T1 sequence (looked up): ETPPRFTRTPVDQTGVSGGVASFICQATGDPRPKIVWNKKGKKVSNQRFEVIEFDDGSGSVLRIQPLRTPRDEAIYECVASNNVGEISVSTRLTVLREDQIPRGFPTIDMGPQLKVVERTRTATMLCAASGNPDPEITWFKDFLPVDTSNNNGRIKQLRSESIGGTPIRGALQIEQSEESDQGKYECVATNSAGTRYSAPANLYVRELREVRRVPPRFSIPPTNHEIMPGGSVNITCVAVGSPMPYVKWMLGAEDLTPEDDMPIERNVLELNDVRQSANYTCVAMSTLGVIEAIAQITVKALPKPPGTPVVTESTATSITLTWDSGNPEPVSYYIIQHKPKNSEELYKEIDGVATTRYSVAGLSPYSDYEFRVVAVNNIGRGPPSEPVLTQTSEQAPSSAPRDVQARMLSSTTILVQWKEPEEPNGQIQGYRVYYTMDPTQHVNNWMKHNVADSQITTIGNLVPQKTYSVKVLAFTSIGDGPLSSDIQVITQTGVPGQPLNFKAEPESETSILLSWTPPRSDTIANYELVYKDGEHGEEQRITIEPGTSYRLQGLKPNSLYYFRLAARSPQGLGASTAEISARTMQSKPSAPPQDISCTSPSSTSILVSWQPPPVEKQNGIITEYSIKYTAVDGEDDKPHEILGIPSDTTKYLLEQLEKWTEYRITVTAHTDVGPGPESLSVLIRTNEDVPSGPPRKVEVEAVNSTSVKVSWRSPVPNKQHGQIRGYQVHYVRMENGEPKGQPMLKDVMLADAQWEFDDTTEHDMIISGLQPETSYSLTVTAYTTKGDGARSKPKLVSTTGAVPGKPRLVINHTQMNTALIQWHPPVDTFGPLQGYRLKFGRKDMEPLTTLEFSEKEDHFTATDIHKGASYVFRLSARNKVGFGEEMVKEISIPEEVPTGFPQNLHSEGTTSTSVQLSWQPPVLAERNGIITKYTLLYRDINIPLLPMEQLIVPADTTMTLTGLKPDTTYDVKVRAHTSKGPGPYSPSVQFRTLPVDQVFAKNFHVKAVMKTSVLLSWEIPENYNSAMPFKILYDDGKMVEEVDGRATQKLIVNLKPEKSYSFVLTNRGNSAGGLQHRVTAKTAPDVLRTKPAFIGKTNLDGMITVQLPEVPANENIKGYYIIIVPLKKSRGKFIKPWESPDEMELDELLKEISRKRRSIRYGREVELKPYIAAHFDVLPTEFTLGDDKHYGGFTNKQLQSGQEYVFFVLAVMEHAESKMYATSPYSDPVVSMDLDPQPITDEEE

[2] = biological target: T2, PTPRD E406K variant extracellular domain (human, UniProt P23468 21-1265); assay: as above
T2 construct: extracellular domain; also called FN1 mutant
T2 sequence (looked up): T1 sequence (looked up) with E265G, E386K

B1: LRRC4B extracellular domain (receptor, human, UniProt Q9NT99 36-576, looked up)
chain: AGGGGVAVTSAAGGGSPPATSCPVACSCSNQASRVICTRRDLAEVPASIPVNTRYLNLQENGIQVIRTDTFKHLRHLEILQLSKNLVRKIEVGAFNGLPSLNTLELFDNRLTTVPTQAFEYLSKLRELWLRNNPIESIPSYAFNRVPSLRRLDLGELKRLEYISEAAFEGLVNLRYLNLGMCNLKDIPNLTALVRLEELELSGNRLDLIRPGSFQGLTSLRKLWLMHAQVATIERNAFDDLKSLEELNLSHNNLMSLPHDLFTPLHRLERVHLNHNPWHCNCDVLWLSWWLKETVPSNTTCCARCHAPAGLKGRYIGELDQSHFTCYAPVIVEPPTDLNVTEGMAAELKCRTGTSMTSVNWLTPNGTLMTHGSYRVRISVLHDGTLNFTNVTVQDTGQYTCMVTNSAGNTTASATLNVSAVDPVAAGGTGSGGGGPGGSGGVGGGSGGYTYFTTVTVETLETQPGEEALQPRGTEKEPPGPTTDGVWGGGRPGDAAGPASSSTTAPAPRSSRPTEKAFTVPITDVTENALKDLDDVMKTTK
notes: extracellular domain; ECD-Fc prey; also called NGL-3; netrin-G ligand-3
B1: no binding [1]; no binding [2].
